Measured values reported in PMC11785871, “D-Serine disrupts Cbln1 and GluD1 interaction and affects Cbln1-dependent synaptic effects and nocifensive responses in the central amygdala” (Cellular and Molecular Life Sciences: CMLS, 2025).

Key:
[1] = biological target: T1, GluD1 (glutamate delta-1 receptor) (Rattus norvegicus, UniProt Q62640); assay: cell-binding assay: inhibition of rCbln1 binding to GluD1-expressing COS-7 cells; effect lost in R526K mutant; immunoblot confirmation in HEK293T; assay type: cell-based
T1 construct: gene Grid1; rat pCAGGS GluD1 plasmid expressed in COS-7 cells; with Cbln1 (recombinant, HA-tagged)

GluD1 = GluD1 (UniProt Q9ULK0); conditions: cited from earlier work
Neurexin = Neurexin (UniProt P58400); conditions: cited from earlier work
Chain of Neurexin (P58400 51-396): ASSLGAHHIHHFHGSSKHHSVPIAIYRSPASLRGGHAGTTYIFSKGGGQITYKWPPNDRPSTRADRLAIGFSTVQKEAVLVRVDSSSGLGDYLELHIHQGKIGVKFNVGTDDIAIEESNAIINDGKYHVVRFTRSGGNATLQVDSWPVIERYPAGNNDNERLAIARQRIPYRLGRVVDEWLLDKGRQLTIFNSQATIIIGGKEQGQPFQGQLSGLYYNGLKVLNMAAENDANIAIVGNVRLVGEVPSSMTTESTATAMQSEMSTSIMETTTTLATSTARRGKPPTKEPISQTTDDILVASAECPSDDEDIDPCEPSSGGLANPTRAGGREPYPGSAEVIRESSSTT

Chain of Cbln1 (P23435 22-193): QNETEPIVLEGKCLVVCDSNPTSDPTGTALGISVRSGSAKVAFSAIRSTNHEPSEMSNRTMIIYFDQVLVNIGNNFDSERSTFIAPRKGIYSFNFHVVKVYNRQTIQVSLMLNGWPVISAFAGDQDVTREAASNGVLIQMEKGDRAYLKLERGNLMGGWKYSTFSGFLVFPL
T1 sequence (Q62640 21-1009): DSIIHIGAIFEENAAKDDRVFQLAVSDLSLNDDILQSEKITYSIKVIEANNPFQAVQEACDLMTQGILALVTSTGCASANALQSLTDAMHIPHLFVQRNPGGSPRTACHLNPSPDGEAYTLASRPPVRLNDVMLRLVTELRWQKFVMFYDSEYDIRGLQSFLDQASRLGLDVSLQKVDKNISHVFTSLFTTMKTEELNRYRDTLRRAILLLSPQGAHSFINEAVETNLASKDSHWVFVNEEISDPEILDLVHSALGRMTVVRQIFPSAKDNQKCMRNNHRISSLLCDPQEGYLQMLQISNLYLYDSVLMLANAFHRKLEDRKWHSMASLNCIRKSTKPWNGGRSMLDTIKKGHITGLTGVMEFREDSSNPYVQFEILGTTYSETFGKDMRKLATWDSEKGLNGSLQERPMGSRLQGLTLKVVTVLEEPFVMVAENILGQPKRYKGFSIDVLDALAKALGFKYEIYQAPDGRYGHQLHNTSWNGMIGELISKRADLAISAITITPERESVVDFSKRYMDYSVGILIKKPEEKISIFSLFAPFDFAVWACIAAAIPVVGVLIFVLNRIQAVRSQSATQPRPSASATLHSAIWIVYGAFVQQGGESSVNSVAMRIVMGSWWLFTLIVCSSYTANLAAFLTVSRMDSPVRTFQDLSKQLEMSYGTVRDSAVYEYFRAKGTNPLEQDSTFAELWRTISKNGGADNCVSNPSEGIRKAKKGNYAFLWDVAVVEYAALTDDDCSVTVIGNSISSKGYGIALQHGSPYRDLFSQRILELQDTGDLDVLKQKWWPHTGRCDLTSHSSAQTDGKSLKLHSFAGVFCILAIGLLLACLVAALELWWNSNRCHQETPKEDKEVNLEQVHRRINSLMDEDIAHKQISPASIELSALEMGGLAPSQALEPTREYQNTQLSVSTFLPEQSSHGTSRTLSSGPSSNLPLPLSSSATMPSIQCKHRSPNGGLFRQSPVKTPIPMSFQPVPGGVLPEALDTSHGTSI
T1 sequence (P63182 22-193 partner): as the sequence (P23435 22-193) above
Chain of GluD1 (Q9ULK0 21-436): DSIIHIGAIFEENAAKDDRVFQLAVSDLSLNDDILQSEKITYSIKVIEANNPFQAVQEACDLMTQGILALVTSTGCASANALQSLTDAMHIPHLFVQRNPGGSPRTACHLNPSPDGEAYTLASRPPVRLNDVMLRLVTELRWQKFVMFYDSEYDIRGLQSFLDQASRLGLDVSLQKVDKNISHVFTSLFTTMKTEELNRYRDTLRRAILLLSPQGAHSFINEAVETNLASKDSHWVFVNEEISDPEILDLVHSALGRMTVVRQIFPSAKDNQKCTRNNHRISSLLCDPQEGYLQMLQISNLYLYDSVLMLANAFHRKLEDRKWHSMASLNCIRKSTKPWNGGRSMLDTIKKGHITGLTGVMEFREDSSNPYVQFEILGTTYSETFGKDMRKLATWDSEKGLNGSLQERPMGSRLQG

| IC50 [1] [µM] | Compound | Kd (GluD1) [µM] | Kd (Neurexin) [µM] |
| --- | --- | --- | --- |
| 310 ± 160 | N[C@H](CO)C(=O)O [D-serine] | – | – |
| – | Cbln1 (from UniProt P23435) | 0.1 | 0.047 |
